Source: publication PMC5815094, “Interplay between the catabolite repression control protein Crc, Hfq and RNA in Hfq-dependent translational regulation in Pseudomonas aeruginosa”

Key:
Hfq;Crc [1] = target: T1, Hfq;Crc (Pseudomonas aeruginosa PAO1;Pseudomonas …, UniProt Q9HUM0;Q51380 1-82;1-259, |); experiment: co-IP (anti-Hfq); RNA-dependent Crc capture; ES buffer: 10 mM Tris pH 8.0, 10 mM KCl, 40 mM NaCl, 1 mM MgCl2; MST + 0.05% Tween-20, room temperature; EMSA + 25 ng tRNA per 10 ul, 37 C 15 min (Fig 6D); NMR; settings: protein: recombinant;recombinant; tags: none stated;His6-tag (N-terminal) removed with HRV14-3C; chain copies: 6;1
Hfq = Hfq (Pseudomonas aeruginosa PAO1, UniProt Q9HUM0 1-82); experiment: MST; 30 nM labelled Hfq6, no Crc; ES buffer: 10 mM Tris pH 8.0, 10 mM KCl, 40 mM NaCl, 1 mM MgCl2; MST + 0.05% Tween-20, room temperature; EMSA + 25 ng tRNA per 10 ul, 37 C 15 min (Fig 6D); NMR; settings: protein: recombinant; tags: none stated; chain copies: 6; label: 5'-32P (EMSA); unlabelled (MST)
Hfq;Crc [2] = target: T1, Hfq;Crc; experiment: MST; 30 nM labelled Hfq6, RNA titrated, 360 nM Crc; ES buffer: 10 mM Tris pH 8.0, 10 mM KCl, 40 mM NaCl, 1 mM MgCl2; MST + 0.05% Tween-20, room temperature; EMSA + 25 ng tRNA per 10 ul, 37 C 15 min (Fig 6D); NMR; settings: protein: recombinant;recombinant; tags: none stated;His6-tag (N-terminal) removed with HRV14-3C; chain copies: 6;1; label: 5'-32P (EMSA); unlabelled (MST)

Binder | binding result (Hfq;Crc [1]) | Kd (Hfq) | Kd (Hfq;Crc [2])
AAAAAAAAAAAAAAAAAAAAAAAAAAA (ssRNA) [poly(A)27] | binds | – | –
AAAAAUAACAACAAGAGG (ssRNA) [amiE6ARN] | – | 43.2 ± 2.3 nM | 33.9 ± 1.7 nM
